Measurements from the DeepSol protein solubility set.

assay: soluble on expression in E. coli; label from the status in PepcDB or PDB records

Soluble on expression in E. coli, not soluble:
MGSDKIHHHHHHMNSIVNDLNRALAQHLLVNVYQTNQEVVYTGYVTTVSDTGIILATYDDYGIPDGAVFLDLTAIDEVEFSSDDLDNMAFRIQTAQDEQFVQAGGLTLQFDGHRDLKRQVLSHAWVDHLVLMLVLKDDEHFYEGIVTSVAAEQVSLQLLNKFDYTDQPLLTLTPKDIEVIEFQGQELTLQGIALPHLQKLSHVAPTTVTDADQFVPTLQQLVGKEPLVALVPKHNRELFFVGRINTVTADGVIMNLLDMTGQFGGYTLMRLSELHEIVLKSDYLQTMRLFALLNRARQQPIQPVLNDERLFDATVDQFGARISQAAAFRTIIRLKLHDGTDLLGFPSQVGGQRFIFHEIDDQQVDQVGQVYRLADVDEVAFGYLDAYLVERQLRVEGDL, MGSDKIHHHHHHMNSSVKTRILQPLRIGKHIARHPIIQGAMAVRVSGAKLAGAVANAGGVGVIASLGLGLDSPYFDKRKKRSFFTANRLALIDELAKARSISPDGVIGVNILVATKDYSVLAQTAAAQGADIIITGAGLPLALPEYTAAYPDVALVPSVANLEAAQLICETWQSRYHRLPDALIVENCQQVGGHFTQCEQVNIPGFSLELVIRQLRDYCQNHLGARIPLIVSGGISDRTDIDRMIAIGADGVQIGTRFVTTVECDADQRYKDYHLQAQPEDIVTVPSPVGKPSRALHNLFTEQVMSNSSNLEKRCIANCLETCLCRDHGKTYCLLQALAQAARGDVENGLIFSGANAGYTQDIISVPELMTELTQAHTIEVSSSDKY, MGSDKIHHHHHHMNVLIVSSSEGITLSLLRCLGLLNIKSHVISVWKSSGSSRFSRFCKNYISSFITESSQGAENIADVINDYCKQQKIDIIIPSGLLGTFLVALIKEKLSYSSVFPINDADKIYNLNNKWQFYHLLRQHNIPTPKTILIETPEQIKLLNLNFPVMVKPLDRGNGYGVKKIDSIVDLHGYISNASQINNLPILVQEYVFGYDILLNVLAENGKLIAWTINRRVPYFFEFFQDENILEIAHKIIDSCNYTGVANFDIRFDERSNSVKVIECNPRFWASFGASVSYGIDFVNLGILLAQGQKLPDNLKKEVTCTEPEKIPYPSPSQFLKGLLLAKYPFAAMKKISSDLAWQSILDPLPNIYEKIWNRLGIVNTHDGVMLNKLLSNSIRVKI, MGSDKIHHHHHHMNYRDELILQWVNQQGKASVIELAQHCDISVETIRRDLNKLANKGLLHRTHGGAVSNKTKDLGSFFQTRKHINATAKRHIAQKALDLLYENAVIGLDASSTSWYFAYLMPDIPCTVVTNSMFNINALVNKSNVKTIVTGGVYSAKYEAFYGPLSEYLLQRLHINFSVFSCSGIDKNGNIWESNELNASLKRKMMEASERAYLLIDSSKFEKTSLIQLADLSKINTIFSDRSLPDNLQKYCEQHDIMTVL, MGSDKIHHHHHHMPASSHQPLDLAKFTLSSPTEIAQHLSNIAKHGHMVTVFANKGKNFILTRLLEVDYQAGVFTFDWGAEEETNTQVLNSERNVFVCSPEGVKTQFVAGQISQVMVDDRPAFQCRLPEQVIKLQRREFFRIQTPLGSPVFCRIGDFNQRSIDLALFDISLGGMSLWLPGIDTPGFDIGQQYLQCSIDLKPFGTLALGIEVRHRLTARMRNGNEAMRIGCSYLNLSAPMETIIQRYVGFLERERRAMVG, MGSDKIHHHHHHMPKLVTWMNNQRVGELTKLANGAHTFKYAPEWLASRYARPLSLSLPLQRGNITSDAVFNFFDNLLPDSPIVRDRIVKRYHAKSRQPFDLLSEIGRDSVGAVTLIPEDETVTHPIMAWEKLTEARLEEVLTAYKADIPLGMIREENDFRISVAGAQEKTALLRIGNDWCIPKGITPTTHIIKLPIGEIRQPNATLDLSQSVDNEYYCLLLAKELGLNVPDAEIIKAGNVRALAVERFDRRWNAERTVLLRLPQEDMCQTFGLPSSVKYESDGGPGIARIMAFLMGSSEALKDRYDFMKFQVFQWLIGATDGHAKNFSVFIQAGGSYRLTPFYDIISAFPVLGGTGIHISDLKLAMGLNASKGKKTAIDKIYPRHFLATAKVLRFPEVQMHEILSDFARMIPAALDNVKTSLPTDFPENVVTAVESNVLRLHGRLSREYGSK, MGSDKIHHHHHHMPLDVDHLRIPALPQLFMELQNALGQPHVSYERIAAIVSKDPRLTASLLKLVNSPHFGFSTPIETVSRAVAASGIRRVSALALGTFVLGLYRERPPLVVDIQGFWLHSVGCGIAARLLAQRLGRSDPERFFVAGLLHDMGWLALCSAAPDRAERIVRRIQSTGCSCEEAERLELGTTHAELGATVLKTWNLPAFLIDVVRSHHAPLATVGDNPPVDGALEVHIADAVVKGMGIGGALDARIAPLDLDAVDTLGLSGHDIAAMTNGLVEQSQALSRLLQGD
